Experimental data reported in the MegaScale stability set (Tsuboyama et al. 2023).

B1: EEHEE_rd3_0130 (parent)
chain: TKIIVNGKTFTAPTEEEAQKIAEKLAKKAGLTVHKKNGTFELK

Variants of: B1
Experiment: folding stability dG (cDNA display proteolysis); higher = more stable
Conditions: PBS, room temperature

Variant	folding stability dG
TKIIVNGKTVTAPTEEEAQKIAEKLAKKAGLTVHKKNGTFELK [F10V]	-0.708 kcal/mol
TKIIVNGKTWTAPTEEEAQKIAEKLAKKAGLTVHKKNGTFELK [F10W]	0.82 kcal/mol
TKIIVNGKTYTAPTEEEAQKIAEKLAKKAGLTVHKKNGTFELK [F10Y]	0.851 kcal/mol
TKIIVNGKTITAPTEEEAQKIAEKLAKKAGLTVHKKNGTFELK [F10I]	0.454 kcal/mol
TKIIVNGKTLTAPTEEEAQKIAEKLAKKAGLTVHKKNGTFELK [F10L]	0.392 kcal/mol
TKIIVNGKTMTAPTEEEAQKIAEKLAKKAGLTVHKKNGTFELK [F10M]	0.05 kcal/mol
TKIIVNIKTFTAPTEEEAQKIAEKLAKKAGLTVHKKNGTFELK [G7I]	-0.201 kcal/mol
TKIIVNYKTFTAPTEEEAQKIAEKLAKKAGLTVHKKNGTFELK [G7Y]	0.159 kcal/mol
TKIIVNKKTFTAPTEEEAQKIAEKLAKKAGLTVHKKNGTFELK [G7K]	0.029 kcal/mol
TKIIVNPKTFTAPTEEEAQKIAEKLAKKAGLTVHKKNGTFELK [G7P]	-0.749 kcal/mol
TKIIVNWKTFTAPTEEEAQKIAEKLAKKAGLTVHKKNGTFELK [G7W]	0.187 kcal/mol
TKIIVNHKTFTAPTEEEAQKIAEKLAKKAGLTVHKKNGTFELK [G7H]	0.106 kcal/mol
TKIIVNSKTFTAPTEEEAQKIAEKLAKKAGLTVHKKNGTFELK [G7S]	-0.025 kcal/mol
TKIIVNLKTFTAPTEEEAQKIAEKLAKKAGLTVHKKNGTFELK [G7L]	-0.186 kcal/mol
TKIIVNVKTFTAPTEEEAQKIAEKLAKKAGLTVHKKNGTFELK [G7V]	-0.592 kcal/mol
TKIIVNRKTFTAPTEEEAQKIAEKLAKKAGLTVHKKNGTFELK [G7R]	0.021 kcal/mol
TKIIVNNKTFTAPTEEEAQKIAEKLAKKAGLTVHKKNGTFELK [G7N]	0.208 kcal/mol
TKIIVNQKTFTAPTEEEAQKIAEKLAKKAGLTVHKKNGTFELK [G7Q]	0.025 kcal/mol
TKIIVNTKTFTAPTEEEAQKIAEKLAKKAGLTVHKKNGTFELK [G7T]	-0.032 kcal/mol
TKIIVNMKTFTAPTEEEAQKIAEKLAKKAGLTVHKKNGTFELK [G7M]	-0.071 kcal/mol
TKIIVNGKCFTAPTEEEAQKIAEKLAKKAGLTVHKKNGTFELK [T9C]	1.66 kcal/mol
TKIIVNGKSFTAPTEEEAQKIAEKLAKKAGLTVHKKNGTFELK [T9S]	0.461 kcal/mol
TKIIVNGKVFTAPTEEEAQKIAEKLAKKAGLTVHKKNGTFELK [T9V]	1.12 kcal/mol
TKIIVNGKFFTAPTEEEAQKIAEKLAKKAGLTVHKKNGTFELK [T9F]	0.699 kcal/mol

Variant	folding stability dG
TKIIVNGKNFTAPTEEEAQKIAEKLAKKAGLTVHKKNGTFELK [T9N]	-0.378 kcal/mol
TKIIVNGKWFTAPTEEEAQKIAEKLAKKAGLTVHKKNGTFELK [T9W]	0.968 kcal/mol
TKIIVNGKYFTAPTEEEAQKIAEKLAKKAGLTVHKKNGTFELK [T9Y]	0.633 kcal/mol
TKIIVNGKPFTAPTEEEAQKIAEKLAKKAGLTVHKKNGTFELK [T9P]	-0.619 kcal/mol
TKIIVNGKKFTAPTEEEAQKIAEKLAKKAGLTVHKKNGTFELK [T9K]	0.007 kcal/mol
TKIIVNGKGFTAPTEEEAQKIAEKLAKKAGLTVHKKNGTFELK [T9G]	-0.452 kcal/mol
TKIIVNGKAFTAPTEEEAQKIAEKLAKKAGLTVHKKNGTFELK [T9A]	0.394 kcal/mol
TKIIVNGKMFTAPTEEEAQKIAEKLAKKAGLTVHKKNGTFELK [T9M]	0.652 kcal/mol
TKIIVNGKEFTAPTEEEAQKIAEKLAKKAGLTVHKKNGTFELK [T9E]	0.17 kcal/mol
TKIIVNGKHFTAPTEEEAQKIAEKLAKKAGLTVHKKNGTFELK [T9H]	0.114 kcal/mol
TKIIVNGKQFTAPTEEEAQKIAEKLAKKAGLTVHKKNGTFELK [T9Q]	0.38 kcal/mol
TKIIVNGKLFTAPTEEEAQKIAEKLAKKAGLTVHKKNGTFELK [T9L]	0.562 kcal/mol
TKIIVNGKIFTAPTEEEAQKIAEKLAKKAGLTVHKKNGTFELK [T9I]	1.01 kcal/mol
TKIIVNGKRFTAPTEEEAQKIAEKLAKKAGLTVHKKNGTFELK [T9R]	-0.066 kcal/mol
TKIIVNGKTFTYPTEEEAQKIAEKLAKKAGLTVHKKNGTFELK [A12Y]	1.63 kcal/mol
TKIIVNGKTFTWPTEEEAQKIAEKLAKKAGLTVHKKNGTFELK [A12W]	0.836 kcal/mol
TKIIVNGKTFTHPTEEEAQKIAEKLAKKAGLTVHKKNGTFELK [A12H]	0.346 kcal/mol
TKIIVNGKTFTIPTEEEAQKIAEKLAKKAGLTVHKKNGTFELK [A12I]	1.26 kcal/mol
TKIIVNGKTFTFPTEEEAQKIAEKLAKKAGLTVHKKNGTFELK [A12F]	1.81 kcal/mol
TKIIVNGKTFTRPTEEEAQKIAEKLAKKAGLTVHKKNGTFELK [A12R]	0.461 kcal/mol
TKIIVNGKTFTVPTEEEAQKIAEKLAKKAGLTVHKKNGTFELK [A12V]	1.34 kcal/mol
TKIIVNGKTFTLPTEEEAQKIAEKLAKKAGLTVHKKNGTFELK [A12L]	1.19 kcal/mol
TKIIVNGKTFTEPTEEEAQKIAEKLAKKAGLTVHKKNGTFELK [A12E]	-0.465 kcal/mol
TKIIVNGKTFTKPTEEEAQKIAEKLAKKAGLTVHKKNGTFELK [A12K]	-0.014 kcal/mol

Variant	folding stability dG
TKIIVNGKTFTMPTEEEAQKIAEKLAKKAGLTVHKKNGTFELK [A12M]	1.02 kcal/mol
TKIIVNGKTFTSPTEEEAQKIAEKLAKKAGLTVHKKNGTFELK [A12S]	0.182 kcal/mol
TKIIVNGKTFTDPTEEEAQKIAEKLAKKAGLTVHKKNGTFELK [A12D]	-0.138 kcal/mol
TKIIVNGKTFTQPTEEEAQKIAEKLAKKAGLTVHKKNGTFELK [A12Q]	-0.091 kcal/mol
TKIIVNGKTFTGPTEEEAQKIAEKLAKKAGLTVHKKNGTFELK [A12G]	0.091 kcal/mol
TKIIVNGKTFTNPTEEEAQKIAEKLAKKAGLTVHKKNGTFELK [A12N]	-0.407 kcal/mol
TKIIVNGKTFTTPTEEEAQKIAEKLAKKAGLTVHKKNGTFELK [A12T]	0.083 kcal/mol
TKIIVNGKTFFAPTEEEAQKIAEKLAKKAGLTVHKKNGTFELK [T11F]	1.38 kcal/mol
TKIIVNGKTFEAPTEEEAQKIAEKLAKKAGLTVHKKNGTFELK [T11E]	0.261 kcal/mol
TKIIVNGKTFLAPTEEEAQKIAEKLAKKAGLTVHKKNGTFELK [T11L]	0.81 kcal/mol
TKIIVNGKTFIAPTEEEAQKIAEKLAKKAGLTVHKKNGTFELK [T11I]	1.03 kcal/mol
TKIIVNGKTFNAPTEEEAQKIAEKLAKKAGLTVHKKNGTFELK [T11N]	0.328 kcal/mol
TKIIVNGKTFGAPTEEEAQKIAEKLAKKAGLTVHKKNGTFELK [T11G]	-0.004 kcal/mol
TKIIVNGKTFWAPTEEEAQKIAEKLAKKAGLTVHKKNGTFELK [T11W]	1.68 kcal/mol
TKIIVNGKTFHAPTEEEAQKIAEKLAKKAGLTVHKKNGTFELK [T11H]	0.697 kcal/mol
TKIIVNGKTFSAPTEEEAQKIAEKLAKKAGLTVHKKNGTFELK [T11S]	0.624 kcal/mol
TKIIVNGKTFCAPTEEEAQKIAEKLAKKAGLTVHKKNGTFELK [T11C]	1.63 kcal/mol
TKIIVNGKTFVAPTEEEAQKIAEKLAKKAGLTVHKKNGTFELK [T11V]	0.762 kcal/mol
TKIIVNGKTFYAPTEEEAQKIAEKLAKKAGLTVHKKNGTFELK [T11Y]	1.42 kcal/mol
TKIIVNGKTFAAPTEEEAQKIAEKLAKKAGLTVHKKNGTFELK [T11A]	0.154 kcal/mol
TKIIVNGKTFMAPTEEEAQKIAEKLAKKAGLTVHKKNGTFELK [T11M]	0.947 kcal/mol
TKIIVNGKTFKAPTEEEAQKIAEKLAKKAGLTVHKKNGTFELK [T11K]	0.248 kcal/mol
TKIIVNGKTFDAPTEEEAQKIAEKLAKKAGLTVHKKNGTFELK [T11D]	-0.3 kcal/mol
TKIIVNGKTFRAPTEEEAQKIAEKLAKKAGLTVHKKNGTFELK [T11R]	0.493 kcal/mol

Variant	folding stability dG
TKIIVNGKTFQAPTEEEAQKIAEKLAKKAGLTVHKKNGTFELK [T11Q]	0.319 kcal/mol
TKIIVNGKTFTANTEEEAQKIAEKLAKKAGLTVHKKNGTFELK [P13N]	0.67 kcal/mol
TKIIVNGKTFTADTEEEAQKIAEKLAKKAGLTVHKKNGTFELK [P13D]	0.664 kcal/mol
TKIIVNGKTFTAETEEEAQKIAEKLAKKAGLTVHKKNGTFELK [P13E]	0.598 kcal/mol
TKIIVNGKTFTACTEEEAQKIAEKLAKKAGLTVHKKNGTFELK [P13C]	0.981 kcal/mol
TKIIVNGKTFTAITEEEAQKIAEKLAKKAGLTVHKKNGTFELK [P13I]	0.41 kcal/mol
TKIIVNGKTFTAMTEEEAQKIAEKLAKKAGLTVHKKNGTFELK [P13M]	0.526 kcal/mol
TKIIVNGKTFTAGTEEEAQKIAEKLAKKAGLTVHKKNGTFELK [P13G]	0.731 kcal/mol
TKIIVNGKTFTALTEEEAQKIAEKLAKKAGLTVHKKNGTFELK [P13L]	0.492 kcal/mol
TKIIVNGKTFTAATEEEAQKIAEKLAKKAGLTVHKKNGTFELK [P13A]	0.804 kcal/mol
TKIIVNGKTFTAHTEEEAQKIAEKLAKKAGLTVHKKNGTFELK [P13H]	0.651 kcal/mol
TKIIVNGKTFTARTEEEAQKIAEKLAKKAGLTVHKKNGTFELK [P13R]	0.954 kcal/mol
TKIIVNGKTFTAWTEEEAQKIAEKLAKKAGLTVHKKNGTFELK [P13W]	0.532 kcal/mol
TKIIVNGKTFTAYTEEEAQKIAEKLAKKAGLTVHKKNGTFELK [P13Y]	0.302 kcal/mol
TKIIVNGKTFTAQTEEEAQKIAEKLAKKAGLTVHKKNGTFELK [P13Q]	0.651 kcal/mol
TKIIVNGKTFTATTEEEAQKIAEKLAKKAGLTVHKKNGTFELK [P13T]	0.634 kcal/mol
TKIIVNGKTFTAFTEEEAQKIAEKLAKKAGLTVHKKNGTFELK [P13F]	0.391 kcal/mol
TKIIVNGKTFTASTEEEAQKIAEKLAKKAGLTVHKKNGTFELK [P13S]	0.761 kcal/mol
TKIIVNGKTFTAKTEEEAQKIAEKLAKKAGLTVHKKNGTFELK [P13K]	0.854 kcal/mol
TKIIVNGKTFTAVTEEEAQKIAEKLAKKAGLTVHKKNGTFELK [P13V]	0.451 kcal/mol
TKIIVNGKTFTAPDEEEAQKIAEKLAKKAGLTVHKKNGTFELK [T14D]	0.286 kcal/mol
TKIIVNGKTFTAPCEEEAQKIAEKLAKKAGLTVHKKNGTFELK [T14C]	0.682 kcal/mol
TKIIVNGKTFTAPKEEEAQKIAEKLAKKAGLTVHKKNGTFELK [T14K]	-0.4 kcal/mol
TKIIVNGKTFTAPHEEEAQKIAEKLAKKAGLTVHKKNGTFELK [T14H]	-0.337 kcal/mol

Variant	folding stability dG
TKIIVNGKTFTAPEEEEAQKIAEKLAKKAGLTVHKKNGTFELK [T14E]	-0.71 kcal/mol
TKIIVNGKTFTAPIEEEAQKIAEKLAKKAGLTVHKKNGTFELK [T14I]	-0.354 kcal/mol
TKIIVNGKTFTAPAEEEAQKIAEKLAKKAGLTVHKKNGTFELK [T14A]	-0.233 kcal/mol
TKIIVNGKTFTAPGEEEAQKIAEKLAKKAGLTVHKKNGTFELK [T14G]	0.32 kcal/mol
TKIIVNGKTFTAPFEEEAQKIAEKLAKKAGLTVHKKNGTFELK [T14F]	-0.544 kcal/mol
TKIIVNGITFTAPTEEEAQKIAEKLAKKAGLTVHKKNGTFELK [K8I]	0.962 kcal/mol
TKIIVNGYTFTAPTEEEAQKIAEKLAKKAGLTVHKKNGTFELK [K8Y]	1.33 kcal/mol
TKIIVNGGTFTAPTEEEAQKIAEKLAKKAGLTVHKKNGTFELK [K8G]	-0.232 kcal/mol
TKIIVNGDTFTAPTEEEAQKIAEKLAKKAGLTVHKKNGTFELK [K8D]	-0.391 kcal/mol
TKIIVNGWTFTAPTEEEAQKIAEKLAKKAGLTVHKKNGTFELK [K8W]	1.53 kcal/mol
TKIIVNGATFTAPTEEEAQKIAEKLAKKAGLTVHKKNGTFELK [K8A]	0.511 kcal/mol
TKIIVNGFTFTAPTEEEAQKIAEKLAKKAGLTVHKKNGTFELK [K8F]	1.25 kcal/mol
TKIIVNGRTFTAPTEEEAQKIAEKLAKKAGLTVHKKNGTFELK [K8R]	0.999 kcal/mol
TKIIVNGSTFTAPTEEEAQKIAEKLAKKAGLTVHKKNGTFELK [K8S]	0.223 kcal/mol
TKIIVNGTTFTAPTEEEAQKIAEKLAKKAGLTVHKKNGTFELK [K8T]	0.475 kcal/mol
TKIIVNGHTFTAPTEEEAQKIAEKLAKKAGLTVHKKNGTFELK [K8H]	0.948 kcal/mol
TKIIVNGVTFTAPTEEEAQKIAEKLAKKAGLTVHKKNGTFELK [K8V]	0.864 kcal/mol
TKIIVNGLTFTAPTEEEAQKIAEKLAKKAGLTVHKKNGTFELK [K8L]	0.895 kcal/mol
TKIIVNGMTFTAPTEEEAQKIAEKLAKKAGLTVHKKNGTFELK [K8M]	0.926 kcal/mol
TKIIVNGETFTAPTEEEAQKIAEKLAKKAGLTVHKKNGTFELK [K8E]	0.053 kcal/mol
TKIIVNGNTFTAPTEEEAQKIAEKLAKKAGLTVHKKNGTFELK [K8N]	0.238 kcal/mol
TKIIVNGQTFTAPTEEEAQKIAEKLAKKAGLTVHKKNGTFELK [K8Q]	0.67 kcal/mol
